{"source": "patent US20100278838A1", "about": "“EPHA2 MONOCLONAL ANTIBODIES AND METHODS OF USE THEREOF” (MEDIMMUNE, LLC, priority 2002, published 2010)", "key": {"[1]": {"system": "control MCF-7 cells", "assay": "Soft agar colonization of control MCF-7 cells", "type": "cell-based", "details": "EA2 10 μg/ml, tamoxifen 1 μM", "protocol": "FIGS. 11A-11B: EphA2 overexpression decreases tamoxifen sensitivity. (A) 1×10^5 MCF-7 or MCF-7^EphA2 cells were suspended in soft agar in the presence of 1 μM tamoxifen (TAM) and or 1 μM 17β-estradiol and colony formation was evaluated microscopically after 14 days. (B) MCF-7 (circles) or MCF-7^EphA2 cells (squares) were implanted into the mammary fatpad (n=15 mice per group) in the presence of supplemental estrogen. Tamoxifen treatment was initiated 17 days post-implantation. Tumor volume of tamoxifen treated (black circles and squares) and saline treated (white circles and squares) animals was measured at the indicated time.\nFIGS. 13A-13C: EphA2 agonistic antibody EA2 decreases malignant growth. MCF-7^EPhA2 cells were incubated in the presence of 3 μg/ml of EA2 for the time indicated prior to sample extraction and western blot analyses with an EphA2-specific antibody (D7). […]\nEphA2 overexpression increased malignant growth (FIGS. 8A-8B). […] Colony formation in soft agar was performed as previously described (Zelinski et al., 2001, Cancer Res. 61:2301-6) and scored microscopically, defining clusters of at least three cells as a positive. […] Error bars represent the standard error of the mean of at least three different experiments as determined using Microsoft Excel software.\nSensitivity of MCF-7^EphA2 cells to tamoxifen was measured. […]"}, "[2]": {"system": "MDA-MB-231 breast cancer cells implanted orthotopically", "assay": "Tumor growth in vivo, MDA-MB-231 implanted orthotopically", "design": "species or system athymic mice", "details": "6mg/kg intraperitoneally twice a week for 3 weeks; versus PBS or 1A7", "protocol": "FIGS. 7A-7D: The EphA2 antibodies, EA2, Eph099B-208.261, and Eph099B-233.152, inhibit tumor cell growth in vivo. MDA-MB-231 breast cancer cells were implanted (A) orthotopically or (B) subcutaneously into athymic mice. (C) A549 lung cancer cells were implanted subcutaneously into athymic mice. After the tumors had grown to an average volume of 100 mm^3, mice were administered 6 mg/kg of the indicated antibody or negative control (PBS or 1A7 antibody) intraperitoneally twice a week for 3 weeks. Tumor growth was assessed and expressed as a ratio of the tumor volume divided by initial tumor volume (100 mm^3). (D) MDA-MB-231 breast cancer cells were implanted subcutaneously into athymic mice. After the tumors had grown to an average volume of 100 mm^3, mice were administered 6 mg/kg of the indicated antibody or negative control intraperitoneally twice a week for 3 weeks. Total tumor volume was determined after sacrifice. Negative control is black, EA2 is white, Eph099B-208.261 is dark grey, and Eph099B-233.152 is light grey.\n5×10^6MDA-MB-231 breast cancer cells were implanted orthotopically or subcutaneously and 5×10^6 A549 lung cancer cells were implanted subcutaneously into athymic mice. […] Tumor growth was assessed and expressed either as a ratio of the tumor volume divided by initial tumor volume (100 mm^3) or as total tumor volume. […]"}, "[3]": {"system": "EphA2 on non-transformed MCF-10A cells", "assay": "Flow cytometry of EA2 binding, non-transformed cells with or without EGTA", "type": "cell-based", "details": "10 μg/ml EA2; 4 mM EGTA 10-15 minutes on ice", "protocol": "(§1) (A, B) Non-transformed MCF-10A cells were labeled with EA2 at 4° C. either before (A) or after (B) treatment with EGTA and prior to fixation and immunolabeling with fluorophore-conjugated anti-mouse IgG. (C, D) Non-transformed MCF-10A (C) or transformed MDA-MB-231 (D) cells were labeled with EA2 either before (middle) or after (top) treatment with EGTA. Control cells were incubated with secondary antibody alone (bottom). The amount of EA2-EphA2 binding was measured using flow cytometry.\n(§2) An equivalent experiment was performed using MCF-10A or MDA-MB-231 cells. The amount of EA2 binding to EphA2 was measured using flow cytometry (FIGS. 17C-17D). Cells were either treated by incubation in 4 mM EGTA for 10-15 minutes on ice (top panel) or were not treated with EGTA (middle panel) before incubation with 10 μg/ml EA2. Cells were then fixed with 3% formalin and labeled with fluorophore-labeled donkey anti-mouse IgG. Control cells were incubated only with secondary antibody (fluorophore-labeled donkey anti-mouse IgG) in the absence of primary antibody (EA2) (bottom panel). The samples were then evaluated using flow cytometry (Becton Dickinson FACStar Plus)."}, "[4]": {"system": "EphA2 on transformed MDA-MB-231 cells", "assay": "Flow cytometry of EA2 binding, transformed cells with or without EGTA", "type": "cell-based", "details": "10 μg/ml EA2; 4 mM EGTA 10-15 minutes on ice", "protocol": "as §1, §2"}, "[5]": {"molecular_target": "EphA2 (Homo sapiens, UniProt P29317)", "sequence (P29317 24-976)": "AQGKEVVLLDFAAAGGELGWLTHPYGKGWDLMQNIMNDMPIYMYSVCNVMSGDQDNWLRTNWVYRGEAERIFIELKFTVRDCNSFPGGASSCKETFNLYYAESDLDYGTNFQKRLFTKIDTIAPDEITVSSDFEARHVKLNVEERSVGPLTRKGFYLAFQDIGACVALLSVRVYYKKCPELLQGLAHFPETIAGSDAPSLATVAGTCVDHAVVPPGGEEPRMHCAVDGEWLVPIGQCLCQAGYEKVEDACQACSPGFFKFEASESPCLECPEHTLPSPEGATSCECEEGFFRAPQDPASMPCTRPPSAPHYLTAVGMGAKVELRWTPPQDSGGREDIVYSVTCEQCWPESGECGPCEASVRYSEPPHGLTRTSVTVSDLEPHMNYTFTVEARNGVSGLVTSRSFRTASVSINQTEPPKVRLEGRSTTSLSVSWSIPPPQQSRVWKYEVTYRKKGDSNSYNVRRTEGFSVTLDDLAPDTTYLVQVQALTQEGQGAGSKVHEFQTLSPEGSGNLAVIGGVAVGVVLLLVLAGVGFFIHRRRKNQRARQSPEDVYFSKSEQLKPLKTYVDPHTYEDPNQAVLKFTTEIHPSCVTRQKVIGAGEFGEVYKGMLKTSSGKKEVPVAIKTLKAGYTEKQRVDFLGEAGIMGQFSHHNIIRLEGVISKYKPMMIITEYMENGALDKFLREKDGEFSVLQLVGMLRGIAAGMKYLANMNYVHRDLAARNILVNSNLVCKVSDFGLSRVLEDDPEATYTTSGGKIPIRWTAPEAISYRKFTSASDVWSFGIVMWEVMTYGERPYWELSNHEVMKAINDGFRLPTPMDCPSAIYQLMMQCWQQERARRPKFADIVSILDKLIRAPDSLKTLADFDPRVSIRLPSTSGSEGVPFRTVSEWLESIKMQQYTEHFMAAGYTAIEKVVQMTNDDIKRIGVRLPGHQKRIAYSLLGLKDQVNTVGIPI", "assay": "EphA2 expression level in MCF-7^EphA2 cells after EA2 (western blot)", "type": "cell-based", "details": "3 μg/ml EA2", "protocol": "FIGS. 13A-13C: EphA2 agonistic antibody EA2 decreases malignant growth. MCF-7^EPhA2 cells were incubated in the presence of 3 μg/ml of EA2 for the time indicated prior to sample extraction and western blot analyses with an EphA2-specific antibody (D7). (B) The membrane was stripped and re-probed with a β-catenin-specific antibody as a loading control. (C) 1×10^5 control or MCF-7^EphA2 cells were suspended in soft agar in the presence or absence of tamoxifen (TAM, 1 μM) and EphA2 agonistic antibody (EA2, 10 μg/ml).\nGrowth MCF-7^EphA2 cells which had decreased EphA2 expression levels was assayed in soft agar. The EphA2 monoclonal antibody EA2 induced EphA2 activation and subsequent degradation. […] Whereas EA2 decreased soft agar colonization (by 19%), the combination of EA2 and tamoxifen caused a much more dramatic (>80%) decrease in soft agar colonization."}}, "data": [{"molecule": "EA2: EphA2 agonistic monoclonal antibody; ATCC deposit no. PTA-4380; co-pending application Ser. No. 10/436,783; VL SEQ ID NO:33, VH SEQ ID NO:37 (antibody, listed as Homo Sapiens, V domains shown) VH: DVKLVESGGGLVKPGGSLKLSCAASGFTFSSYTMSWVRQTPEKRLEWVATISSGGTYTYYPDSVKGRFTISRDNAKNTLYLQMSSLKSEDTAMYYCTREAIFTYWGQGTLVTVSA VL: DIKMTQSPSSMYASLGERVTITCKASQDINNYLSWFQQKPGKSPKTLIYRANRLVDGVPSRFSGSGSGQDYSLTISSLEYEDMGIYYCLKYDEFPYTFGGGTKLEIK", "values": [{"measurement": "Effect of EA2 on tamoxifen response of control MCF-7 cells in soft agar", "setting": "[1]", "value": "did not further alter this response"}, {"measurement": "Growth of MDA-MB-231 cells implanted orthotopically", "setting": "[2]", "value": "inhibited"}, {"measurement": "Effect of EGTA treatment on EA2 binding, non-transformed cells", "setting": "[3]", "value": "increased by incubation in EGTA"}, {"measurement": "Effect of EGTA treatment on EA2 binding, transformed cells", "setting": "[4]", "value": "did not affect"}, {"measurement": "EphA2 expression level", "setting": "[5]", "value": "Decreased levels of EphA2 expression were observed within two hours"}, {"measurement": "Time EphA2 remained undetectable", "setting": "[5]", "value": "≥ 24", "unit": "h"}]}]}
